Laboratory results as given in publication PMC5472279, “Genetic, structural, and chemical insights into the dual function of GRASP55 in germ cell Golgi remodeling and JAM-C polarized localization during spermatogenesis” (PLoS Genetics, 2017).
Ends that are not written are not given here. * marks the point of attachment. Biotin = O=C1N[C@H]2[C@H](CS[C@H]2CCCCC(=O)*)N1

B1: JAM-C peptide, carboxy-terminal 19-mer (JAM-C_P19) (peptide)
peptide: NYIRTSEEGDFRHKSSFVI
notes: Junctional Adhesion Molecule-C (JAM-C), mouse, encoded by Jam3, carboxy-terminal 19 amino acids; source: synthetic peptide (Covalab, France)
B2: Biotinylated 19-mer peptide of the carboxy-terminal sequence of JAM-B (peptide)
peptide: Biotin-SKVTTMSENDFKHTKSFII
notes: JAM-B, mouse, carboxy-terminal 19 amino acids; source: synthetic peptide (Covalab, France)
B3: Biotinylated 19-mer peptide of the carboxy-terminal sequence of JAM-C (peptide)
peptide: Biotin-NYIRTSEEGDFRHKSSFVI
notes: JAM-C, mouse, carboxy-terminal 19 amino acids; source: synthetic peptide (Covalab, France)
B4: JAM-A peptide, carboxy-terminal 19-mer (peptide)
peptide: SQPSTRSEGEFKQTSSFLV
notes: Junctional Adhesion Molecule-A (JAM-A), carboxy-terminal 19 amino acids; source: synthetic peptide (Covalab, France)
B5: JAM-B peptide, carboxy-terminal 19-mer (JAM-B_P19) (peptide)
peptide: SKVTTMSENDFKHTKSFII
notes: Junctional Adhesion Molecule-B (JAM-B), mouse, carboxy-terminal 19 amino acids; source: synthetic peptide (Covalab, France)
B6: JAM-C_P19, peptide corresponding to the C-terminal 19-mer of mouse JAM-C (unlabeled) (peptide)
peptide: NYIRTSEEGDFRHKSSFVI
notes: JAM-C, mouse, C-terminal 19-mer; the homologous non-biotinylated form of the printed biotinylated peptide; also called JAM-C peptide; source: synthetic peptide
B7: Biotinylated 19-mer peptide of the carboxy-terminal sequence of JAM-A (peptide)
peptide: Biotin-SQPSTRSEGEFKQTSSFLV
notes: JAM-A, carboxy-terminal 19 amino acids; source: synthetic peptide (Covalab, France)
B8: Unlabeled (non-biotinylated) JAM-A carboxy-terminal 19-mer peptide (peptide)
peptide: SQPSTRSEGEFKQTSSFLV
notes: JAM-A, carboxy-terminal 19 amino acids; the homologous non-biotinylated form of the printed biotinylated peptide; source: synthetic peptide
B9: JAM-B_P19, peptide corresponding to the C-terminal 19-mer of mouse JAM-B (unlabeled) (peptide)
peptide: SKVTTMSENDFKHTKSFII
notes: JAM-B, mouse, C-terminal 19-mer; the homologous non-biotinylated form of the printed biotinylated peptide; also called JAM-B peptide; source: synthetic peptide

How the values were obtained:
Details in all cases: both partners purified
[1] = target: T1, GST-GRASP55 FL (GST-tagged GRASP55 full-length, aa 2-451) (mouse, UniProt Q99JX3 2-451); experiment: ITC; GRASP55 protein in the cell (70-150 uM), JAM peptide in the syringe (800-2250 uM); 298 K (25 °C); 100 mM NaPO4 buffer pH 7.5; MicroCal ITC200; one-site fit
T1 construct: Gateway cloning into pDEST15; also called mGRASP55 Full-length (FL); Golgi reassembly stacking protein of 55 kDa; source: E. coli BL21 (DE3), purified (Glutathione sepharose 4B); not shown: GST, N-terminal, kept

[2] = target: His-GRASP55 PDZ12 (Histidine-tagged PDZ tandem of GRASP55, aa 2-208) (mouse, UniProt Q99JX3 2-208); experiment: as above
[3] = target: GRASP55 PDZ12, untagged PDZ tandem of GRASP55 (mouse, UniProt Q99JX3 2-208); experiment: as above
[4] = target: T2, GST-GRASP55 FL (mGRASP55 Full-length, aa 2-451) (mouse, UniProt Q99JX3 2-451); experiment: AlphaScreen or HTRF; GST fusion protein, anti-GST antibody coupled to terbium cryptate (1 nM), streptavidin-d2 (1.25 nM), biotinylated peptide (6 nM), competed with non-biotinylated peptide or the compound Graspin; 0.05 M HEPES, 0.15 M NaCl, 0.25% BSA pH 7.3, 18 h, 4°C
T2 construct: GRASP55, mouse, aa 2-451, called full-length (FL); Forward primers with and without a thrombin cleavage site were used; also called full-length GRASP55 protein; source: E. coli BL21 (DE3), purified (Glutathione sepharose 4B); not shown: GST, N-terminal, kept

[5] = target: T2, GST-GRASP55 FL (mGRASP55 Full-length, …); experiment: AlphaScreen or HTRF + ITC; the text names HTRF or ITC for the values without telling which; GST-GRASP55 FL with JAM peptides; HTRF: biotinylated peptide competed with unlabeled peptide, 0.05 M HEPES, 0.15 M NaCl, 0.25% BSA pH 7.3, 18 h, 4°C; ITC: peptide in the syringe, protein in the cell, 100 mM NaPO4 pH 7.5, 25°C

Binder	stoichiometry N [1]	Kd [2] [µM]	stoichiometry N [2]	binding result [4]	Kd [5] [µM]	also measured
B1	1	7.1 ± 0.1	1			Kd [3]: 3.8 ± 0.1 µM; stoichiometry N [3]: 1.1
B2				binds		
B3				binds		
B4	0.8	14 ± 1	0.9			
B5	0.9	1.2 ± 0.1	1.3			
B6					3.7	
B7				binds		
B8					27	
B9					4.9	
